Results taken from the RNAGym collection of RNA variant scans (doi:10.1093/nar/gkz1192).

B1: CPEB3 Ribozyme (parent)
chain: UAACAGGGGGCCACAGCAGAAGCGUUCACGUCGCAGCCCCUGUCAGAUUCUGGUGAAUCUGCGAAUUCUGCUGUAUAUCUC

Variants of: B1
Assay: self-cleavage, relative activity (ratio to wild type); higher = more cleavage; in vitro, sequencing
Summary of the method: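 After error-prone PCR and barcoding, CPEB3 ribozyme mutant libraries were transcribed with T7 RNA polymerase at 37°C for 5 hours, then given 15 min with DNase I before an EDTA stop, and they cleaved during both steps. Reverse transcription with template switching preceded Illumina sequencing. Relative activity divides a variant's cleaved/total read fraction by the unmutated ribozyme's. At least 5 reads were required per variant, and three batches were averaged.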

| Variant | self-cleavage |
| --- | --- |
| CAACAGGGGGCCACAGCAGAAGCGUUCACGUCGCAGCCCUUGUCAGAUUCUGGUGAAUCUGCGAAUUCUGCUGUAUAUCUC [U1C C40U] | 0.3 |
| CAACAGGGGGCCACAGCAGAAGCGUUCACGUCGCAGCCCAUGUCAGAUUCUGGUGAAUCUGCGAAUUCUGCUGUAUAUCUC [U1C C40A] | 0.18 |
| CAACAGGGGGCCACAGCAGAAGCGUUCACGUCGCAGCCCCUGUCAGAUUCUGGUGAAUCUGCGAAUUCUGCUUUAUAUCUC [U1C G73U] | 1.08 |
| CAACACGGGGCCACAGCAGAAGCGUUCACGUCGCAGCCCCUGUCAGAUUCUGGUGAAUCUGCGAAUUCUGCUGUAUAUCUC [U1C G6C] | 0.56 |
| CAACAAGGGGCCACAGCAGAAGCGUUCACGUCGCAGCCCCUGUCAGAUUCUGGUGAAUCUGCGAAUUCUGCUGUAUAUCUC [U1C G6A] | 0.3 |
| CAACAGGGGGCCACAGCAGAAGUGUUCACGUCGCAGCCCCUGUCAGAUUCUGGUGAAUCUGCGAAUUCUGCUGUAUAUCUC [U1C C23U] | 0.47 |
| CAACAGGGGGCCACAGCAGAAGGGUUCACGUCGCAGCCCCUGUCAGAUUCUGGUGAAUCUGCGAAUUCUGCUGUAUAUCUC [U1C C23G] | 0.42 |
| CAACAGGGGGCCACAGCAGAAGCGUUUACGUCGCAGCCCCUGUCAGAUUCUGGUGAAUCUGCGAAUUCUGCUGUAUAUCUC [U1C C27U] | 0.38 |
| CAACAGGGGGCCACAGCAGAAGCGUUCACGUCGCAACCCCUGUCAGAUUCUGGUGAAUCUGCGAAUUCUGCUGUAUAUCUC [U1C G36A] | 0.21 |
| CAACAGGGGGCCACAGCAGAAGCGUUCACGUCGCACCCCCUGUCAGAUUCUGGUGAAUCUGCGAAUUCUGCUGUAUAUCUC [U1C G36C] | 0.2 |
| CAACAGGGGGCCACAGCAGAAGCGUUCACGUCGCAGCCCCUGUCAGAUUCUGGUGAAUCUGCGAAUUCUGCUGUAUAUAUC [U1C C79A] | 1.03 |
| CAACAGGGGGCCACAGCAGAAGCGUUCACGUCGCAGCCCCUGUCAGAUUCUGGUGAAUCUGCGAAUUCUGCUGUAUAUUUC [U1C C79U] | 0.8 |
| CAACAGGGGGCCACAGCAGAAGCGUUCACGUCACAGCCCCUGUCAGAUUCUGGUGAAUCUGCGAAUUCUGCUGUAUAUCUC [U1C G33A] | 0.32 |
| CAACAGGGGGCCACAGCAGAAGCGUUCACGUCGCAGCCCCUGUCAGAUUCUGGUGAAUCUGUGAAUUCUGCUGUAUAUCUC [U1C C62U] | 0.32 |
| CAACAGGGGGCCACAGCAGAAGCGUUCACGUCGCAGCCCCUGACAGAUUCUGGUGAAUCUGCGAAUUCUGCUGUAUAUCUC [U1C U43A] | 1.1 |
| CAACAGGGGGCCACAGCAGAAGCGUUCACGUCGCAGCCCCUGCCAGAUUCUGGUGAAUCUGCGAAUUCUGCUGUAUAUCUC [U1C U43C] | 0.57 |
| CAACAGCGGGCCACAGCAGAAGCGUUCACGUCGCAGCCCCUGUCAGAUUCUGGUGAAUCUGCGAAUUCUGCUGUAUAUCUC [U1C G7C] | 0.44 |
| CAACAGAGGGCCACAGCAGAAGCGUUCACGUCGCAGCCCCUGUCAGAUUCUGGUGAAUCUGCGAAUUCUGCUGUAUAUCUC [U1C G7A] | 0.09 |
| CAACAGGGGGCCACAGCAGAAGCGUUCACGUCGCAGCCCCUGUCAGAUUCCGGUGAAUCUGCGAAUUCUGCUGUAUAUCUC [U1C U51C] | 0.7 |
| CAACAGGGGGCCACAGCAGAAGCGUUCACGUCGCAGCCCCUGUCAGAUUCGGGUGAAUCUGCGAAUUCUGCUGUAUAUCUC [U1C U51G] | 0.97 |
| CAACAGGGGGCCACAGCAGAAGCGUUCACGUCGCAGCCCCUGUCAGAUUCAGGUGAAUCUGCGAAUUCUGCUGUAUAUCUC [U1C U51A] | 0.8 |
| CAACAGGAGGCCACAGCAGAAGCGUUCACGUCGCAGCCCCUGUCAGAUUCUGGUGAAUCUGCGAAUUCUGCUGUAUAUCUC [U1C G8A] | 0.34 |
| CAACAGGUGGCCACAGCAGAAGCGUUCACGUCGCAGCCCCUGUCAGAUUCUGGUGAAUCUGCGAAUUCUGCUGUAUAUCUC [U1C G8U] | 0.39 |

| Variant | self-cleavage |
| --- | --- |
| CAACAGGGGGCCACAGCAGAAGCGUUCACGUCGCAGCCCCUGUCAGAUUCUAGUGAAUCUGCGAAUUCUGCUGUAUAUCUC [U1C G52A] | 1 |
| CAACAGGGGGCCACAGCAGAAGCGUUCACGUCGUAGCCCCUGUCAGAUUCUGGUGAAUCUGCGAAUUCUGCUGUAUAUCUC [U1C C34U] | 0.24 |
| CAACAGGGGGCCACAGCAGAAGCGUUCACGUCGAAGCCCCUGUCAGAUUCUGGUGAAUCUGCGAAUUCUGCUGUAUAUCUC [U1C C34A] | 0.12 |
| CAACAGGGGGCCACAACAGAAGCGUUCACGUCGCAGCCCCUGUCAGAUUCUGGUGAAUCUGCGAAUUCUGCUGUAUAUCUC [U1C G16A] | 0.08 |
| CAACAGGGGGCCACAGCAUAAGCGUUCACGUCGCAGCCCCUGUCAGAUUCUGGUGAAUCUGCGAAUUCUGCUGUAUAUCUC [U1C G19U] | 0.4 |
| CAACAGGGGGCCACAGCAAAAGCGUUCACGUCGCAGCCCCUGUCAGAUUCUGGUGAAUCUGCGAAUUCUGCUGUAUAUCUC [U1C G19A] | 0.32 |
| CAACAGGGGGCCACAGCAGAAGCGUUCACGUCGCAGCCCCUGUCAGAUUCUGGUGAAUCUGCAAAUUCUGCUGUAUAUCUC [U1C G63A] | 0.84 |
| CAACAGGGGCCCACAGCAGAAGCGUUCACGUCGCAGCCCCUGUCAGAUUCUGGUGAAUCUGCGAAUUCUGCUGUAUAUCUC [U1C G10C] | 0.17 |
| CAACAGGGGACCACAGCAGAAGCGUUCACGUCGCAGCCCCUGUCAGAUUCUGGUGAAUCUGCGAAUUCUGCUGUAUAUCUC [U1C G10A] | 0.23 |
| CAACAGGGGGCCACAGCAGAAGCCUUCACGUCGCAGCCCCUGUCAGAUUCUGGUGAAUCUGCGAAUUCUGCUGUAUAUCUC [U1C G24C] | 0.31 |
| CAACAGGGGGCCACAGCAGAAGCGUUCACCUCGCAGCCCCUGUCAGAUUCUGGUGAAUCUGCGAAUUCUGCUGUAUAUCUC [U1C G30C] | 0.14 |
| CAACAGGGGGCCACAGCAGAAGCGUUCACGUCGCAGCCCCUGUCAGAUUCUGGUGAAUCUGCGAAUUAUGCUGUAUAUCUC [U1C C68A] | 0.37 |
| CAACAGGGGGCCACAGCAGAAGCGUUCACGUCGCAGCCCCUGUCAGAUUCUGGUGAAUCUGCGAAUUGUGCUGUAUAUCUC [U1C C68G] | 0.25 |
| CAACAGGGGGCCACAGCAGAAGCGUUCACGUCGCAGCCCCUGUCAGAUACUGGUGAAUCUGCGAAUUCUGCUGUAUAUCUC [U1C U49A] | 0.61 |
| CAACAGGGGGCCACAGCAGAAGCGUUCACGUCGCAGCCCCUGUCAGAUCCUGGUGAAUCUGCGAAUUCUGCUGUAUAUCUC [U1C U49C] | 0.37 |
| CAACAGGGGGCCACAGCAGAAGCGUUCACGUAGCAGCCCCUGUCAGAUUCUGGUGAAUCUGCGAAUUCUGCUGUAUAUCUC [U1C C32A] | 0.26 |
| CAACAGGGGGCCACAGCAGAAGCGUUCACGUCGCAGCCCCUGUCAGAUUCUGUUGAAUCUGCGAAUUCUGCUGUAUAUCUC [U1C G53U] | 0.72 |
| CAACAGGGGGCCACAGCAGAAGCGUUCACGUCGCAGCCCCUGUCAGAUUCUGAUGAAUCUGCGAAUUCUGCUGUAUAUCUC [U1C G53A] | 0.98 |
| CAACAGGGGGCCACAGCAGAAGCGUUCACGUCGCAGCCCCUGUCAGAUUCUGGUGAAUCUGCGAAUUCUGUUGUAUAUCUC [U1C C71U] | 0.54 |
| CAACAGGGGGCCACAGCAGAAGCGUUCACGUCGCAGCACCUGUCAGAUUCUGGUGAAUCUGCGAAUUCUGCUGUAUAUCUC [U1C C38A] | 0.18 |
| CAACAGGGGGCCACAGCAGAAGCGUUCACGACGCAGCCCCUGUCAGAUUCUGGUGAAUCUGCGAAUUCUGCUGUAUAUCUC [U1C U31A] | 0.43 |
| CAACAGGGGGCCACAGCAGAAGCGUUCACGCCGCAGCCCCUGUCAGAUUCUGGUGAAUCUGCGAAUUCUGCUGUAUAUCUC [U1C U31C] | 0.7 |
| CAACAGGGGGCCACAGCAGAAGCGUUCACGUCGCAGCCCCUGUCAGAUUCUGGUGAAUCUGCGAAUUCUGCUGUAUAUCUG [U1C C81G] | 1.21 |

| Variant | self-cleavage |
| --- | --- |
| CAACAGGGGGCCACAGCAGAAGCGUUCACGUCGCAGCCCCUGUCAGAUUAUGGUGAAUCUGCGAAUUCUGCUGUAUAUCUC [U1C C50A] | 0.61 |
| CAACAGGGGGCCACAGCAGAAGCGGUCACGUCGCAGCCCCUGUCAGAUUCUGGUGAAUCUGCGAAUUCUGCUGUAUAUCUC [U1C U25G] | 0.22 |
| CAACAGGGGGCCACAGCAGAAGCGCUCACGUCGCAGCCCCUGUCAGAUUCUGGUGAAUCUGCGAAUUCUGCUGUAUAUCUC [U1C U25C] | 0.32 |
| CAACAGGGGGCCACAGCAGAAGCGAUCACGUCGCAGCCCCUGUCAGAUUCUGGUGAAUCUGCGAAUUCUGCUGUAUAUCUC [U1C U25A] | 0.37 |
| CAACAGGGCGCCACAGCAGAAGCGUUCACGUCGCAGCCCCUGUCAGAUUCUGGUGAAUCUGCGAAUUCUGCUGUAUAUCUC [U1C G9C] | 0.39 |
| CAACAGGGAGCCACAGCAGAAGCGUUCACGUCGCAGCCCCUGUCAGAUUCUGGUGAAUCUGCGAAUUCUGCUGUAUAUCUC [U1C G9A] | 0.43 |
| CAACAGGGGGCCACAGCAGAAGCGUACACGUCGCAGCCCCUGUCAGAUUCUGGUGAAUCUGCGAAUUCUGCUGUAUAUCUC [U1C U26A] | 0.81 |
| CAACAGGGGGCCACAGCAGAAGCGUCCACGUCGCAGCCCCUGUCAGAUUCUGGUGAAUCUGCGAAUUCUGCUGUAUAUCUC [U1C U26C] | 0.38 |
| CAACAGGGGGCCACAGCAGAAGCGUUCACGUCGCAGCCCCUGUCAGAUUCUGGAGAAUCUGCGAAUUCUGCUGUAUAUCUC [U1C U54A] | 1.03 |
| CAACAGGGGGCCACAGCAGAAGCGUUCACGUCGCAGCCCCUGUCAGAUUCUGGCGAAUCUGCGAAUUCUGCUGUAUAUCUC [U1C U54C] | 0.68 |
| CAACAGGGGGCCACAGCAGAAGCGUUCACGUCGCAGACCCUGUCAGAUUCUGGUGAAUCUGCGAAUUCUGCUGUAUAUCUC [U1C C37A] | 0.16 |
| CAACAGGGGGCCACAGCAGAAGCGUUCACGUCGCAGUCCCUGUCAGAUUCUGGUGAAUCUGCGAAUUCUGCUGUAUAUCUC [U1C C37U] | 0.37 |
| CAACAGGGGGCCACAGCAGAAGCGUUCACGUCGCAGCCCCUGUCAGAUUCUGGUGAAUCUGCGAAUUCUUCUGUAUAUCUC [U1C G70U] | 0.32 |
| CAACAGGGGGCCACAGCAGAAGCGUUCACGUCGCAGCCCCUGUCAGAUUCUGGUGAAUCUGCGAAUUCUCCUGUAUAUCUC [U1C G70C] | 0.35 |
| CAACAGGGGGCCACAGCAGAAGCGUUCACGUCGCAGCCCCUGUCAGACUCUGGUGAAUCUGCGAAUUCUGCUGUAUAUCUC [U1C U48C] | 0.41 |
| CAACAGGGGGCCACAGCAGAAGCGUUCACGUCGCAGCCCCUGUCAGAAUCUGGUGAAUCUGCGAAUUCUGCUGUAUAUCUC [U1C U48A] | 0.16 |
| CAACAGGGGGCCACAGCAGAAGCGUUCACGUCGCAGCCCCCGUCAGAUUCUGGUGAAUCUGCGAAUUCUGCUGUAUAUCUC [U1C U41C] | 0.87 |
| CAACAGGGGGCCACAGCAGAAGCGUUCACGUCGCAGCCCCGGUCAGAUUCUGGUGAAUCUGCGAAUUCUGCUGUAUAUCUC [U1C U41G] | 0.53 |
| CAACAGGGGGCCACAGCAGAAGCGUUCACGUCGCAGCCCCAGUCAGAUUCUGGUGAAUCUGCGAAUUCUGCUGUAUAUCUC [U1C U41A] | 0.21 |
| CAACAGGGGGCCACAGCAGAAGCGUUCAUGUCGCAGCCCCUGUCAGAUUCUGGUGAAUCUGCGAAUUCUGCUGUAUAUCUC [U1C C29U] | 0.33 |
| CAACAGGGGGCCACAGCAGAAGCGUUCAAGUCGCAGCCCCUGUCAGAUUCUGGUGAAUCUGCGAAUUCUGCUGUAUAUCUC [U1C C29A] | 0.32 |
| CAACAGGGGGCCACAGCAGAAGCGUUCACGUCGCAGCCCCUAUCAGAUUCUGGUGAAUCUGCGAAUUCUGCUGUAUAUCUC [U1C G42A] | 0.45 |
